These results are taken from article doi:10.1101/2023.04.13.536481 (bioRxiv, 2023).

This data set deals with the molecule itself. Nature of the data set: crystal structure.

B1: LIN-42 N-terminus residues 41-315 (domain or fragment, C. elegans)
chain: GAMDPEFNTWSSSSVEFLDDADDNRLLFTCTFTLPHGTVLSSATYADGFHEQYLTIGDNFLARLEPKGQSFILSAAAASVKQRIFARVTMPDGALRACELLCEFETDRAKITVLALRSAFSLQASHVSSNFHVFTFITKHSSTCALTHIDYASIPYLGLLPTDLIGKSLLAFVYSPDVHVVRQAHIDLHNSRGKIVKSIADLRLVAHNGSILRCQTEWSAYVNPWTRKMELVVARHRICSLPIGDSDVISSPPPGIQSNTLPPVMAKTFEDELRTIMNKPVP
Turning to B1, the binding result was “binds”.
